Laboratory results as given in article doi:10.1101/2023.03.06.531343.

Molecular target: VirE2-Venus (expressed in transgenic Arabidopsis roots) (Agrobacterium tumefaciens) (UniProt P0A3W8)
Assay: co-IP

Chain of UniProt P0A3W8 (P0A3W8 whole entry): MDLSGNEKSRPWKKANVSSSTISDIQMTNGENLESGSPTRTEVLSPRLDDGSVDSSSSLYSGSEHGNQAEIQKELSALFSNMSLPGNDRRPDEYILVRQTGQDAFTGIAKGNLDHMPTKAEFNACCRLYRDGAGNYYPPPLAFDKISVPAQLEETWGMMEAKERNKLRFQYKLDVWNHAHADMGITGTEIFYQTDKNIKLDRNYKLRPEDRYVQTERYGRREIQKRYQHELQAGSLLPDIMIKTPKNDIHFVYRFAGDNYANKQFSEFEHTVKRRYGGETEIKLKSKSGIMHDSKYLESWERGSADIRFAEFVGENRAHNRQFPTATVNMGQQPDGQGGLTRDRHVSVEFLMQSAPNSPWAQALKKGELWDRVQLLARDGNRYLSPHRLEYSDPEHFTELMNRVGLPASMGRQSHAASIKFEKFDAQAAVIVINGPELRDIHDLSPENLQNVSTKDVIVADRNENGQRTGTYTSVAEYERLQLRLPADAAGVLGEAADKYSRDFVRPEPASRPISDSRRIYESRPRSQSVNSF

Q: How did the percent of the input co-immunoprecipitated (% of the input) turn out when “myc-tagged myosin VIII-2 cargo binding domain (transgenic Arabidopsis roots) (domain or fragment)” was run?
A: 4

Q: Which percent of the input co-immunoprecipitated (% of the input) does the source give for “myc-tagged myosin VIII-A cargo binding domain (transgenic Arabidopsis roots) (domain or fragment)” here?
A: 4

Q: “myc-tagged myosin VIII-B cargo binding domain (transgenic Arabidopsis roots) (domain or fragment)” was tested. Which percent of the input co-immunoprecipitated (% of the input) did it give?
A: 4

Q: For “myc-tagged myosin XI-K cargo binding domain (transgenic Arabidopsis roots) (domain or fragment)”, which percent of the input co-immunoprecipitated (% of the input) is on record?
A: 4
